Results published in doi:10.1101/2020.03.02.973859.

Target: T1, K+/Cl- co-transporter KCC2 (mouse (endogenous in mouse forebrain)), Q91V14
T1 chain: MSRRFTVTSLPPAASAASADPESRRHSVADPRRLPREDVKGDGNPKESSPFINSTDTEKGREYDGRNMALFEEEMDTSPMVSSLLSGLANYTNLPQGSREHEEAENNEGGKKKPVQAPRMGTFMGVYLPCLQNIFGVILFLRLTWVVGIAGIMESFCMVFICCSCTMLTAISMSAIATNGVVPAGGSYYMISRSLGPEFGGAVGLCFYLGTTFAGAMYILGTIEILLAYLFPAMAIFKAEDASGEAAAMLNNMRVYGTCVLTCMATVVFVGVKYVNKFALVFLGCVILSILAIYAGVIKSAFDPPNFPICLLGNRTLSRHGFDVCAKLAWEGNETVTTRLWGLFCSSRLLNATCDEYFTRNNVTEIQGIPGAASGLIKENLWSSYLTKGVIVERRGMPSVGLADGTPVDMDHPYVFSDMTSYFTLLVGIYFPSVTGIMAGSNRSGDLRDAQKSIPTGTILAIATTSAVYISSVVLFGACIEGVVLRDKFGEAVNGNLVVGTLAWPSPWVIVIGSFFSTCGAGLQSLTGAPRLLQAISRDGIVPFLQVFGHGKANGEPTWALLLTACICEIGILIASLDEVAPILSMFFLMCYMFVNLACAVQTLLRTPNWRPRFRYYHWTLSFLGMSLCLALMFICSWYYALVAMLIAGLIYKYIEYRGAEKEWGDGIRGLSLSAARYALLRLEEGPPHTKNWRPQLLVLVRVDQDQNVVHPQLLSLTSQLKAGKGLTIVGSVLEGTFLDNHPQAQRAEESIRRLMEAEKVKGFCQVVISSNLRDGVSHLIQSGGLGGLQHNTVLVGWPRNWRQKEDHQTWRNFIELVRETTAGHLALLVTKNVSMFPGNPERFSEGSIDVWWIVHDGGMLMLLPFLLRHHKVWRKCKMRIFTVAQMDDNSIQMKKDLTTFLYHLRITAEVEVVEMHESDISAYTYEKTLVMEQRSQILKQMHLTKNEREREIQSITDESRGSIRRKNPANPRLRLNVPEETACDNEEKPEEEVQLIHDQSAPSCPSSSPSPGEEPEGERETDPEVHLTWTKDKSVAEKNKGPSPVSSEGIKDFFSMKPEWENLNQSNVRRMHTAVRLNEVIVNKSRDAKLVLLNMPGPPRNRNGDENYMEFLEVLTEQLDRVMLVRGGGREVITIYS
Experiment: native gel or EMSA
Details: remark: other sources report otherwise

B1: K+/Cl- co-transporter KCC2, Q91V14 1-1138 (natural protein)
chain: T1 chain
stoichiometry N: 2
